Test results: IntAct's records for PubMed 23559066

B1: Autophagy-related protein 32 (Saccharomyces cerevisiae), P40458 (parent)
chain: MVLEYQQREGKGSSSKSMPPDSSSTTIHTCSEAQTGEDKGLLDPHLSVLELLSKTGHSPSPMGQNLVTSIDISGNHNVNDSISGSWQAIQPLDLGASFIPERCSSQTTNGSILSSSDTSEEEQELLQAPAADIINIIKQGQEGANVVSPSHPFKQLQKIISLPLPGKEKTPFNEQDDDGDEDEAFEEDSVTITKSLTSSTNSFVMPKLSLTQKNPVFRLLILGRTGSSFYQSIPKEYQSLFELPKYHDSATFPQYTGIVIIFQELREMVSLLNRIVQYSQGKPVIPICQPGQVIQVKNVLKSFLRNKLVKLLFPPVVVTNKRDLKKMFQRLQDLSLEYGEDVNEEDNDDEAIHTKSRSYCRNKKAENSKKKSPKSNKKPKRKKQKFFTSWFTWGISITIGISFGCCVTYFVTAAYEHQTVKSLSLRPSILASLLSLDSSSDTINTPATASPSSTEQFLWFDKGTLQINFHSDGFIMKSLTIIKETWGKMNTFVLHALSKPLKFLENLNKSSEFSIDESNRILALGYILL
partner: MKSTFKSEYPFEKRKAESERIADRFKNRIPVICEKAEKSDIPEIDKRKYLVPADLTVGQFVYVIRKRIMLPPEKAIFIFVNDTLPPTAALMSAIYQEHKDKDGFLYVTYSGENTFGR
B2: Autophagy-related protein 36 (Saccharomyces cerevisiae), P46983 (parent)
chain: MASVNNYQVDCGSRSARIQPRINNGIHDEESLFEVLELSEEEFELDFHRLKSFNDVRVINNPDLSPECTNTAISRDETLESASSAFEVPSDEIAILSISSDSNKNSPPSEQPAPALRNIRSSSNSDRIDEWCLGSHLFNELHQNVPQSSDGVNHGFPVYSFKERELYTSAKLKKLTNAQRIAVQKLSRDLYPILRTCYREKTRRQLLTYHHERIFDDIPSFFPQRDFIFNYYSMPLEFDRLSDVDIDSSSRSRFTDESTGETLNRSPSAASSSLENTSWFGWTLLSRFLDREW
partner: B1 partner
B3: Autophagy-related protein 32 (Saccharomyces cerevisiae), P40458 (parent)
chain: B1 chain
partner: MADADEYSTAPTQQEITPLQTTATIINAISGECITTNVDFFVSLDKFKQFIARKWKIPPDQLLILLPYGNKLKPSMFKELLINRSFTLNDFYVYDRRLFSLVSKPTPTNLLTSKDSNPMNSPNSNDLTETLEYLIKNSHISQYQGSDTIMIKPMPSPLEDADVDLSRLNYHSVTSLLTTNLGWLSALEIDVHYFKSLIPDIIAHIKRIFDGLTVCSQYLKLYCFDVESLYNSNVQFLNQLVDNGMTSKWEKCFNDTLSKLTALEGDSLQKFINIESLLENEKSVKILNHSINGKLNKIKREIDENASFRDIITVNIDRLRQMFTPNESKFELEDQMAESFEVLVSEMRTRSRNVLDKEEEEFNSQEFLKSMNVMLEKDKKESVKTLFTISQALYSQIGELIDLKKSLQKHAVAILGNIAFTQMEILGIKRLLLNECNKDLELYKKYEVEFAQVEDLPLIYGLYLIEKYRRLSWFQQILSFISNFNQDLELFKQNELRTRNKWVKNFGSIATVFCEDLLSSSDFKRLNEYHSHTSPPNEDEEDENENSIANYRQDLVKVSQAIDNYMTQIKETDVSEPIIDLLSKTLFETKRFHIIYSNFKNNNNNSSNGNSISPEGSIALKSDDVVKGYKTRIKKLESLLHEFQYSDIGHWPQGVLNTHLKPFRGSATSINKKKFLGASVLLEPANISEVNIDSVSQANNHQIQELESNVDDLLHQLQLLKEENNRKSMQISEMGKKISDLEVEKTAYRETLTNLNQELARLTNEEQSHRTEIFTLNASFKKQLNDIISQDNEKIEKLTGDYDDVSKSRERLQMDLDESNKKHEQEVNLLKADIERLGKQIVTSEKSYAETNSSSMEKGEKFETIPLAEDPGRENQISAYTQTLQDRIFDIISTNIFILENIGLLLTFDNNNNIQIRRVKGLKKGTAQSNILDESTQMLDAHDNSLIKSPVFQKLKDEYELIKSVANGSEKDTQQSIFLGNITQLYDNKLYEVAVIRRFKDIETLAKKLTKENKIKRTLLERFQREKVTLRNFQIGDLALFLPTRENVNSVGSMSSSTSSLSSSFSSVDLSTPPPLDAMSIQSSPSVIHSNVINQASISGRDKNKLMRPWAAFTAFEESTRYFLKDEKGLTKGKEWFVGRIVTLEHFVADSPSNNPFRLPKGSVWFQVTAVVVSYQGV
B4: Autophagy-related protein 36 (Saccharomyces cerevisiae), P46983 (parent)
chain: B2 chain
partner: B3 partner

Variants of: B1
Details: with atg8_yeast ATG8, P38182

Row | effect of a mutation on the interaction | Variant
1 | disrupting interaction | S81A;S83A;S85A

Variants of: B2
Details: with atg8_yeast ATG8, P38182

Row | effect of a mutation on the interaction | Variant
2 | disrupting interaction | F33A;L36A

Variants of: B2
Details: with atg8_yeast ATG8, P38182
Remark: another data set of the same source

Row | effect of a mutation on the interaction | Variant
3 | disrupting interaction | S31A

Variants of: B3
Details: with atg11_yeast ATG11, Q12527

Row | effect of a mutation on the interaction | Variant
4 | disrupting interaction | S114A;S119A

Variants of: B4
Details: with atg11_yeast ATG11, Q12527

Row | effect of a mutation on the interaction | Variant
5 | disrupting interaction | S97A
